The target in the assay is Bcl-xL (UniProt Q07817). Briefly: anti-myc co-IP, Bcl-xL immunoblot. The settings on record: reference: myc-Rad9 wild type; sites S328. Background: In western blotting, separated proteins are transferred to a membrane and probed.

This note sets out measurements from publication PMC3441668.

Take “Rad9 (from UniProt Q99638) myc-Rad9 S328A”: the “binding against the reference” value is recorded as “weaker”.
